Consider six substances from article PMC3592866.

In experiment [1] the target is pXqua MltBP-QUA1-C59S fusion protein (Xenopus laevis). Description: SEC; analytical Superdex-200 PC 3.2/30 of MltBP-QUA1 fusion proteins; 20 mM Tris-HCl pH 7.9, 150 mM NaCl, 0.05% sodium azide; 50 uL at 1 mg/mL loaded; apparent aggregation numbers from calibration; monomer to dimer. For orientation: Size exclusion chromatography separates by hydrodynamic size, large species first.

The target of experiment [2] is pXqua MltBP-QUA1-C59S/R67A fusion protein (Xenopus laevis). Described as above.
The target in experiment [3] is pXqua MltBP-QUA1-C59S/R67A/E72G fusion protein (Xenopus laevis). The experiment is described as above.
In experiment [4] the target is pXqua MltBP-QUA1-C59S/R67E/E72R fusion protein (Xenopus laevis). The description is as above.
For experiment [5], the target named is pXqua QUA1-C59S (protease-liberated peptide) (Xenopus laevis). Description: AUC; sedimentation equilibrium of released QUA1-C59S, global single species fits; monomer to dimer.
For experiment [6], the target named is wild type pXqua MltBP-QUA1 fusion protein (Xenopus laevis). Description: SEC; analytical Superdex-200 PC 3.2/30 of MltBP-QUA1 fusion proteins; 20 mM Tris-HCl pH 7.9, 150 mM NaCl, 0.05% sodium azide; 50 uL at 1 mg/mL loaded; apparent aggregation numbers from calibration; monomer to dimer.

Values joined by “and” are separate entries in the source; they are usually repeats but may differ in a detail not shown here. Identical values can stand only once.

Regarding “pXqua MltBP-QUA1-C59S fusion protein (domain or fragment)”, in experiment [1], the AAN (apparent aggregation number) is 2.7 and the stoichiometry N (commonly the number of molecules, sites or subunits per partner or assembly) was 2.

“pXqua MltBP-QUA1-C59S/R67A fusion protein (domain or fragment)”: in experiment [2], the AAN (apparent aggregation number) came out at 1.7 and the percent of species in the dimeric state came out at 40%.

For the substance “pXqua MltBP-QUA1-C59S/R67A/E72G fusion protein (domain or fragment)”, the fraction eluting in the dimer peak in experiment [3] worked out at 0.33.

For the substance “pXqua MltBP-QUA1-C59S/R67E/E72R fusion protein (domain or fragment)”, in experiment [4], the AAN (apparent aggregation number) came out at 2.1 and the percent of species in the dimeric state was 70%.

Turning to “pXqua QUA1-C59S (protease-liberated peptide) (domain or fragment)”, the stoichiometry N in experiment [5] stood at 2.

Consider “wild type pXqua MltBP-QUA1 fusion protein (domain or fragment)”, for which the stoichiometry N in experiment [6] was 4 and 2.
